Reference: paper PMC3080137, “The Anti-Apoptotic Bcl-xL Protein, a New Piece in the Puzzle of Cytochrome C Interactome” (PLoS ONE, 2011)

Molecular target: human Bcl-xL (residues 1-209, lacking the C-terminal hydrophobic tail) (human, UniProt Q07817-1 1-209, 15N-labelled where it was the observed protein)
Assay: NMR titration; 15N-Bcl-xL titrated with unlabeled cytochrome c up to Bcl-xL:cytochrome c 1:10, 1H-15N HSQC; Kd from weighted average chemical shift variations; 300 K; 50 mM sodium phosphate pH 7.3, 150 mM NaCl, 1 mM DTT, 10% D2O
Conditions: both partners purified

Sequence of human Bcl-xL (residues 1-209, lacking the C-terminal hydrophobic tail) (Q07817 1-209): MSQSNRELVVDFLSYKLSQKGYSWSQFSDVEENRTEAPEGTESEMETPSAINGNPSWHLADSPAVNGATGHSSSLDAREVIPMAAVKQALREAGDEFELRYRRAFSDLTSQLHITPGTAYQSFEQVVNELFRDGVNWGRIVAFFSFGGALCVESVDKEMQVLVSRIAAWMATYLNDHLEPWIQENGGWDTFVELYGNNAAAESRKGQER

B1: human cytochrome c (natural protein)
chain: not shown
modifications: heme, iron(II) (reduced) form; 15N-labelled where it was the observed protein
notes: cytochrome c, human, full length; also called reduced cytochrome c; source: expressed and purified as reported in the literature [36]; unlabeled and 15N-labeled form
Kd: 1000 to 3000 µM
